Reference: the DeepSol protein solubility set

Assay: soluble on expression in E. coli; label from the status in PepcDB or PDB records

Sequence	soluble on expression in E. coli
AIAPAKERFFGFHPCKLVEQVEDCVRDLLEDALDGLETSLFRECALAFDALQENAVTSEHEHAKRLLLQQGLMRLRDALFTAFYDQMDRLQVYLLRNVFHIPPGLRIPNVNTSEDLVENWEQALGIDPSSVQIDANAEDEHAVDQELVALRQSLRVARQRLQRLCRERSVLEGAFHRLEGALQSRLASTLIPTEPEDPSGDCDALAKQVVTIARAVSELEAVVRSCRDQFLGDRSSAASGGAPPSGTVPAAAGGSDVGAQGALVRPPLELERIFDAHTKATRVDSLDAVDALRRALHRSC	soluble
MRWNICVVGAGKIGQMIAALLKTSSNYSVTVADHDLAALAVLNRMGVATKQVDAKDEAGLAKALGGFDAVISAAPFFLTPIIAKAAKAAGAHYFDLTEDVAATNAVRALAEDSQTAFMPQCGLAPGFVGIAGAALAAEFDEIDSLHMRVGALPLYPTNALKYNLTWSTDG	not soluble
VVAPITTGYTVKISNYGWDQSDKFVKIYITLTGVHQVPTENVQVHFTERSFDLLVKNLNGKSYSMIVNNLLKPISVEGSSKKVKTDTVLILCRKKVENTRWDYLTQVEKECKEK	soluble
MRLSFRTLQRRNALGDAPRHRSAQRRAVKTGRRASRTACDAERRTIVERAWHDSLEHHHHHH	not soluble
MGHHHHHHSHMATGTPESQARFGQSVKGLLTEKVTTCGTDVIALTKQVLKGSRSSELLGQAARNMVLQEDAILHSEDSLRKMAIITTHLQYQQEAIQKNVEQSSDLQDQLNHLLK	not soluble
MNKQRFVVIDVETTGNSPKKGDKIIQIAAVVIENGQITERFSKYINPNKSIPAFIEQLTGISNQMVENEQPFEAVAEEVFQLLDGAYFVAHNIHFDLGFVKYELHKAGFQLPDCEVLDTVELSRIVFPGFEGYKLTELSEELQLRHDQPHRADSDAEVTGLIFLEILEKLRQLPYPTLKQLRRLSQHFISDLTHLLDMFINENRHTEIPGYTRFSSFSVREPEAIDVRINEDENFSFEIESWEAGNEKALSELMPGYEKRDGQMMMMREVADAFANREHALIEAPPGIGKTIGYLIPAALFAKKSKKPVIISTYSTLLQQQILTKDLPIVQDLFPFPVTAAILKGQSHYLCLYKFEQVLHEEDDNYDAVLTKAQLLVWLTETNTGDVAELNLPSGGKLLWDRLAYDDDSYKRSRSEHVIGFYERAKQIAMRSDLVITNHSLLLTDEGSHKKRLPESGTFIIDEAHHFERAASEHLGKRATYIELHTKLSRIGTLKEQGLLKKMRQLFQRNSLPVDSFFELEEWLQHVQAESDAFFSSVHSFVKRRKPKEDLNRLVFKVNKESQDKSWSILTDGAERLCSMLTHLQQLFEAQSSLMEKHLKGMKSKTVFLADEYQRSMKGLQHYCQTLQKLFFGSDDDEAVWIEIDAKGAKNAVAIYAQPLEPGELLADQFFARKNSVVLTSATLTVEGSFQFMIERLGLSDFFPRTMRIESPFSYDERMQVMIPKEMKSIQDTGQPEFIQDTARYIELMAKEKQPKILVLFTSHDMLKKVHQELKHNMSASGIQLLAQGITGGSPGKLMKTFKTSNQAILLGTNHFWEGVDFPGDELTTVMIVRLPFRSPDHPLHAAKCELARKKGKNPFQTVSLPEAVLTFRQGIGRLLRSAGDKGTIIILDRRIKTAGYGRLFLDALPTTSVSEMTDSELEAY	not soluble
MGSDKIHHHHHHAQTEVLTGVTRGKDYGVVYALPKTQIEIEIKANKVNYKPGEFSKYADRYLRLTNVSAEPEEYWELNSVKVKPVGVPNSEATYFVKLKDKTVAPLMELTEEGLIKSINVPYSSNNAKNAANNAVAPQRKANPRDFLTEEILMASSTAKMAELVAKEIYNIRESKNALLRGQADNMPSDGAQLKIMLDNLNLQEEAMTEMFSGVRNKEEKTFTVRLTPDKEFDNEVAFRFSKKLGIVANNDLAGTPFYISLKDLKTVKIPQEDGKKKKEMEGIAYNVPGQAMVTLTDGKKKLYEGEIPVTQFGIIEYLAPVLFNKNSTIKVYFDPVTGGLLKVDREESK	not soluble
MVKATNVDLSLEDIISKTRKTTGSIQKKSFGGARRGNTRPTGLPRRSGGSGGWKDLDAVQNHGISSRGNDSKVIRVNISNLAPTVISSDLEELFGDYRLSSVSVNFNEHGDSLGTGDISLTKRDAERLVQKFSGVALDGKIMKFAVIDSSNMAGRVDFGNRSRSSPGRSSRGFQSGPRRNNGKPEDFLRDGVHAGDIKRGGAGRGGFRKGGRGGARDAKPKKTEAELDAELEAYMAKRNA	soluble
MTDKTSLSYKDAGVDIDAGNALVGRIKGVVKKTRRPEVMGGLGGFGALCALPQKYREPVLVSGTDGVGTKLRLAMDLKRHDTIGIDLVAMCVNDLVVQGAEPLFFLDYYATGKLDVDTASAVISGIAEGCLQSGCSLVGGETAEMPGMYHGEDYDVAGFCVGVVEKSEIIDGSKVSDGDVLIALGSSGPHSNGYSLVRKILEVSGCDPQTTELDGKPLADHLLAPTRIYVKSVLELIEKVDVHAIAHLTGGGFWENIPRVLPDNTQAVIDESSWQWPEVFNWLQTAGNVEHHEMYRTFNCGVGMIIALPAPEVDKALALLNANGENAWKIGIIKASDSEQRVVIE	soluble
MTLTTTLTTGLALLLAAQALPAPASAAPAAVGSVTIGWADATHELIKITWTETTAAANTLTLHTDDPETAAVRFGTTTADQPNEYLVDPTQLGYTADPRHTSWILVSDGTATTARSVDFDRFHHAQRGAALSFAGDRVRWTAPADTSVDGTPGDPLDLPKAYTYQPMQRVDDDPVGNYECKDTELPATTERTGLVPNPGTAYDLFLTMTNEWGTADVGYLQVGTTQTVTADGPAATAYGATTTIKGHAEGTVMFEQGRPPVCDEVRVDLSNQPLTVQQRTSSTAPWTVVGTVRTTVNGDYTAVVKNPGHRQYRVVRPNTAAFESAWYGGTSGVITVRSLTRVVSAKFIQPVVRLGTRPQAYLWVDPAGTQKAALQFRNAAGAWQGVTYKTLYAGRGLVSFPWNRRGTTRFRWWVPASGGAESVVSPVFTVTVT	not soluble
MGSDKIHHHHHHMNTRILNALKQTTLIEEKQKASHCFVEDMPPYAINQELSLKEHGRVLSNYFFKNKDIYISRHNRYADYPTHTHTFLEMNYMLQGHATEIVDDKKITLNTGDLLLLDEGSTHSIKALGDNDLLINILFRTKNISINLLNDLRRSNNIFYDFLLSQVIEDSNHKRDYLVFTKKRNNEVQETLDRIIDEYYLKRDFSNSIIKSYLSILLVQLVREYPLNGPHQENKSSLLAIKVLKAIAEEYKTVSLEELANRYNYNKNYLSNIFKSEVGQTFSEVLTRQRLIQAHTLIASTSLPIATIMEQVGIKNKTFFYQKYKNYYKTLPSTDR	not soluble
GAMGSSRKSKAELQSEERKRIDELIESGKEEGMKIDLIDGKGRGVIATKQFSRGDFVVEYHGDLIEITDAKKREALYAQDPSTGCYMYYFQYLSKTYCVDATRETNRLGRLINHSKCGNCQTKLHDIDGVPHLILIASRDIAAGEELLYDYGDRSKASIEAHPWLKH	soluble
MRLASMGEEDSTPGRRSKAYSRQGADVRPMKGGHGINLVGTLMAATERGANIVEGVVDFRPTDLRGSLRRGREANLIVFVVDTSGSMAARSRVRAVTGTITSMLNDAYQRRDKVAVIAVNGNKPTLVLNPTNSVEQAQQKLKDMPMGGRTPLAEGLLMAKDLMARELRKEPGRRAILMVMTDGQDTSDAGEAGIATAAETVVKSRLSGNVVIDCEGRLKVRKERAGVLAEMLGGVCVRLRDLNSEHIKMVINA	not soluble
MGSDKIHHHHHHMLIKLNDYEKNITQKIKDLKNASGSHSPSIFTMAEQIPELNIKIDSCFLSNPYATALFLRYLKEELIDGQKLRSVLEFYPSQNSIIAKTVADFIGIDPKNVFIGNGAIEIIQAVMHNFVGKKIIVNIPTFSSYYEFAKSETNVVYYQLSKEDNYNLNIEHYLNFVKNENPDSVVLINPNNPDGGYINYEKLRYILSELKYVKNIIIDESFIHFAYENKDYNGINIEYLFKEFHNTIIIKSMSKDFGVAGIRIGYAIMSEDKIRGLLKNGYLWNSSGLSEYFLRLYVRKNFFDEYDKVRREYIQETQTFFRKLSGIKQFKVYPSMANFALVELLDGSSSTDFVAKMLIKYGIYMRTCNDKIGLEGEFIRIASRTLEENDMVLKSICDVFKE	not soluble
MGSDKIHHHHHHMLAASMVDLARRLGVSSVHVTFPGGDEYEGLGEAGYLQRLGSQYHWTNPGYQSFDDFLGQLSSRKRKQIRKERDAVARTGIRLSTLVGGDVKARHWDVFHAFYQAVVDRKWGRAYVSRAFFEELSASALADSVVLVWAEDGGEPLGAAFNMLGGDTLYGRTWGGGRHVDFLHFEACYYRALDFAIAQGLARVEAGAQGEHKVSRGYLPNATYSAHWIADSRLAEPVARYLVHERAMVTEDMASQTEEGPFRKG	not soluble
MGSSHHHHHHSSGLVPRGSHMLDFNIEGLIPKNMEKRGELVLNEYLKEIEDVFNHRKIPENGIDDEKIKLFLKFLSMMDTDKDPKSVRIGEREARTYSKIHEELSSGFCHGIGRSGNLVDPQPKASGASIMYALTNKILESFFKQLGLNVHAIATPISTGMSISLCLSAARKKYGSNVVIYPYASHKSPIKAVSFVGMNMRLVETVLDGDRVYVPVEDIENAIKKEIELGNRPCVLSTLTFFPPRNSDDIVEIAKICENYDIPHIINGAYAIQNNYYLEKLKKAFKYRVDAVVSSSDKNLLTPIGGGLVYSTDAEFIKEISLSYPGRASATPVVNTLVSLLSMGSKNYLELVKNQKNSKKLLDELLNDLSKKTGGKFLDVESPIASCISVNSDPVEIAAKLYNLRVTGPRGIKKTDHFGNCYLGTYTHDYIVMNAAIGVRTEDIVNSVSKLEKILL	soluble
MGHHHHHHSHMERFVVTAPPARNRSKTALYVTPLDRVTEFGGELHEDGGKLFCTSCNVVLNHVRKSAISDHLKSKTHTKRKAEFEEQNVRKKQRPLTASLQCNSTAQTEKVSVIQDFVKMCLEANIPLEKADHPAVRAFLSRHVKNGGSIPKSDQLRRTYLPDGYENENQLLNSQDC	soluble
PPHVKFIKEKDICSYEEASDPGHFRWYPKGKLMRDLLADYVYNLVVNMGAMPVETPIMYDLGNPAIREHADKFGERQYRFRQGNKELMLRFAACFGQFMMKKDMYLLPRYLPLKLYELSTYSFRYEQRGELVGLKRLRCFTMPDMHTVCLNLEQAMEEFEKQFWECLKTGDDLNLSYSVIFRFTKDFFDEHRDWFFKIAKEYKNKYGKDVILEILPKRKHYWVGKVDIAVIDSLGRPIENPTVQIDVESAKRFDIKVHTNEGEIYPIILHCSPTGSIERVLCGLLEKAA	not soluble
MCIAAWVWQAHPQHQLLLLLNRDEFHSRPTKAVGWWGEGSKKILGGRDVLGGGTWMGCTKDGRLAFLTNVLEPDAMPGARTRGDLPLRFLQSNKSPLEVATEVAKEADEYNGFNLVLADLTTNVMVYVSNRPKGQPATIQLVSPGLHVLSNARLDSPWQKAIRLGKNFREHLRKHGDDEVEAKDIVERLMTDTTKADKDRLPNTGCDPNWEHGLSSIFIEVQTDQGLYGTRSTAVLSVNYDGEASLYEKYLESGIWKDHTVHYQIE	soluble
